The target in this assay is HA of BPL-inactivated virus preparation of strain A/New Caledonia/20/99 (H1N1) (influenza A virus A/New Caledonia/20/99 (H1N1)). Briefly: ELISA, coated inactivated virus, IgG 5 µg/ml.

In turn, CR3014 (antibody) had an OD 492 nm of 0.09 OD 492 nm.
CR6261 (antibody) gave an OD 492 nm of 1.46 OD 492 nm.

The values are drawn from patent US20090311265A1.
